Experimental data reported in the supplement of paper PMC12855868.

B1: library; numbered along this chain (parent)
chain: MAAAGGARLLRAASAVLGGPAGRWLHHAGSRAGSSGLLRNRGPGGSAEASRSLSVSARARSSSEDKITVHFINRDGETLTTKGKVGDSLLDVVVENNLDIDGFGACEGTLACSTCHLIFEDHIYEKLDAITDEENDMLDLAYGLTDRSRLGCQICLTKSMDNMTVRVPETVADARQSIDVGKTS

Variants of: B1
Assay: scaled log2 fold change in cell abundance, elesclomol vs control (0 = silent mean, 1 = nonsense mean) (scaled log2 ratio); higher = higher viability under elesclomol (loss of FDX1 cuproptosis function)
Conditions: glucose 10 mM
[1] = with ABC1 FDX1 KO, elesclomol 5 nM, 14 days
[2] = with HEK293T FDX1 KO, elesclomol 40 nM, 11 days
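Further: variant abundance is its share of total variant reads in each endpoint sample, from next-generation sequencing of the integrated ORF PCR-amplified out of genomic DNA.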

Variant | scaled log2 fold change [1] | scaled log2 fold change [2]
G151R | 1.11 | 0.946
G151P | 1.03 | 1.12
G151S | 0.0704 | -0.359
G151T | 0.645 | 0.96
G151D | 1.22 | 1.19
G151C | 0.338 | -0.416
G151F | 1.04 | 1.32
G151K | 1.04 | 0.728
G151I | 1.07 | 0.797
G151E | 1.06 | 1.01
G151Q | 1.11 | 1.05
G151M | 1.01 | 1.15
G151V | 0.707 | -0.147
G151L | 1 | 0.743
G151H | 1.27 | 1.31
G151Y | 1.15 | 1.08
G151N | 1.12 | 1.08
G151A | 0.241 | 0.25
G151W | 1.06 | 1.38
L144S | -0.409 | 0.564
L144K | 0.175 | -0.503
L144N | 0.342 | -0.655
L144M | 0.249 | -0.887
L144A | 0.157 | -0.304

Variant | scaled log2 fold change [1] | scaled log2 fold change [2]
L144T | 0.135 | -0.511
L144I | 0.399 | -0.124
L144R | 0.343 | 0.505
L144H | -0.0895 | -0.335
L144G | -0.079 | -0.323
L144P | 0.386 | 0.307
L144D | 0.171 | -0.877
L144E | 0.116 | 0.0837
L144C | 0.106 | -0.265
L144V | -0.402 | -0.057
L144W | -0.112 | -0.217
L144F | -0.293 | 1.23
L144Q | 0.137 | -1.45
L144Y | -1.21 | -0.239
S148R | 0.331 | 0.333
S148M | 0.0932 | 0.216
S148Y | 0.363 | -0.279
S148W | 0.632 | 0.172
S148H | 0.322 | -0.35
S148D | 0.488 | 0.491
S148I | 0.277 | 1.81
S148E | 0.489 | 1.23
S148P | 0.532 | 0.268
S148Q | 0.313 | 0.39

Variant | scaled log2 fold change [1] | scaled log2 fold change [2]
S148G | -0.0749 | -0.519
S148C | 0.0537 | 0.319
S148T | 0.485 | 0.124
S148K | 0.496 | -0.0219
S148V | 0.0179 | 0.35
S148A | -0.395 | 0.0871
S148L | 0.386 | 0.434
S148N | 0.122 | 0.397
S148F | 0.404 | 0.537
T145G | 0.132 | 1.06
T145V | 0.027 | -0.443
T145H | -0.157 | -0.272
T145C | -0.124 | -0.351
T145W | 0.478 | -0.147
T145M | 0.318 | -0.375
T145Q | 0.226 | -1.28
T145R | 0.0604 | -0.726
T145E | -0.0343 | -0.344
T145P | 0.209 | -0.123
T145A | -0.6 | 0.187
T145K | -0.0518 | -0.472
T145D | -0.00306 | -0.25
T145N | 0.291 | -0.855
T145F | -0.258 | -0.0341

Variant | scaled log2 fold change [1] | scaled log2 fold change [2]
T145S | 0.00135 | –
T145I | 0.244 | -0.228
T145Y | 0.224 | 0.0425
T145L | 0.169 | 0.152
D146M | -0.332 | –
D146H | -0.228 | -0.639
D146E | 0.138 | 0.321
D146T | 0.301 | -0.841
D146A | 0.0826 | -0.539
D146C | 0.0801 | 0.758
D146L | 0.0782 | -0.302
D146I | -0.109 | 0.0633
D146V | -0.227 | -0.76
D146P | -0.219 | 0.177
D146Q | -0.0405 | -0.462
D146Y | 0.1 | 0.0545
D146R | -0.0353 | –
D146F | -0.0311 | 0.866
D146K | 0.0568 | -0.151
D146N | -0.093 | 0.538
D146W | 0.114 | 0.978
D146G | -0.311 | 0.974
D146S | -0.00471 | 0.0302
G143T | 0.153 | -1.08

Variant | scaled log2 fold change [1] | scaled log2 fold change [2]
G143R | 0.384 | -1.11
G143S | -0.338 | 0.106
G143Y | 0.0128 | 0.695
G143L | -0.0816 | 0.114
G143H | -0.162 | -0.302
G143W | -0.202 | -0.602
G143A | 0.189 | 1
G143P | 0.108 | -0.153
G143E | -0.312 | -0.391
G143V | 0.0102 | -0.395
G143Q | -0.167 | 0.225
G143C | -0.043 | 0.0676
G143I | -0.102 | -0.507
G143K | -1.13 | 0.329
G143F | -0.335 | 0.343
G143N | -0.705 | 0.0112
G143M | 0.337 | -0.813
G143D | 0.242 | 0.59
R147S | -0.721 | -0.596
R147N | 0.171 | 0.904
R147F | 0.104 | -0.384
R147A | 0.283 | –
R147L | -1.37 | -0.851
R147M | 0.167 | -0.232

Variant | scaled log2 fold change [1] | scaled log2 fold change [2]
R147G | -0.409 | 0.00185
R147D | 0.339 | 0.314
R147K | -0.354 | -0.267
R147Q | 0.0113 | -0.0201
R147T | -0.344 | -0.0355
R147E | 0.159 | -0.255
R147C | -0.148 | 0.356
R147H | -0.0226 | -0.215
R147W | 0.275 | -0.126
R147P | 0.35 | -0.0221
R147Y | 0.159 | 0.243
R147I | 0.215 | -0.172
R147V | 0.177 | 0.544
Y142A | -0.39 | –
Y142R | 0.172 | -1.11
Y142M | -0.877 | -0.0122
Y142L | -0.24 | -0.251
Y142D | -0.228 | 1.12
Y142S | -0.293 | -1.45
Y142H | -0.0863 | 0.947
Y142G | -0.302 | -0.393
Y142P | -1.37 | –
Y142Q | -0.102 | -0.021
Y142W | -0.245 | 0.733

Variant | scaled log2 fold change [1] | scaled log2 fold change [2]
Y142T | -0.197 | 0.583
Y142N | -0.329 | –
Y142F | 0.0438 | 0.876
Y142V | -0.226 | -0.606
Y142I | -0.441 | –
Y142K | 0.0326 | –
Y142C | 0.285 | -0.427
Y142E | -0.1 | -0.695
R149D | 1.08 | 0.943
R149F | 0.872 | 1.08
R149W | 1.07 | 1.1
R149E | 1.13 | 1.11
R149L | 0.679 | 0.937
R149P | 1.05 | 0.985
R149I | 0.876 | 0.53
R149S | 0.96 | 0.508
R149N | 1 | 1.05
R149M | 0.689 | 0.499
R149V | 0.231 | 0.529
R149A | 0.375 | 0.982
R149Y | 0.871 | 0.839
R149G | 0.658 | 0.436
R149K | 0.66 | -0.00324
R149Q | 0.899 | 1.02

Variant | scaled log2 fold change [1] | scaled log2 fold change [2]
R149C | 0.906 | 1.99
R149H | 0.625 | 0.597
R149T | 1.01 | 0.998
C152A | 1.22 | 1.33
C152E | 1.03 | 1.1
C152F | 1.1 | 2.08
C152D | 1.1 | 1.19
L150W | 1.06 | 1.11
L150Q | 0.537 | 0.364
L150S | 0.479 | 0.331
L150I | 0.2 | -0.337
L150N | 0.899 | 0.249
L150C | -0.0973 | 0.196
L150T | 0.595 | -0.16
L150E | 0.981 | 1.27
L150M | -0.0616 | -0.103
L150R | 1.05 | 0.41
L150H | 0.563 | -0.201
L150A | 0.335 | 0.397
L150F | 0.244 | -0.211
L150P | 1.09 | 0.82
L150D | 1.09 | 0.982
L150G | 0.757 | 0.513
L150V | 0.447 | -0.147

Variant | scaled log2 fold change [1] | scaled log2 fold change [2]
L150Y | 0.721 | 0.392
L150K | 1.24 | 1.51
L140S | -0.172 | –
L140V | -0.00688 | 0.753
L140K | -0.153 | -0.169
L140T | -0.682 | -0.194
L140C | -0.0723 | -0.467
L140A | -0.069 | -1.25
L140Y | -0.351 | -0.373
L140N | 0.179 | –
L140I | -0.0613 | 0.225
L140R | -0.341 | -0.397
L140P | 0.264 | 0.879
L140Q | 0.178 | -1.41
L140E | 0.271 | –
L140F | -0.344 | 0.78
L140D | -0.319 | -0.308
L140M | 0.393 | 0.793
L140G | -0.344 | 0.395
L140H | -1.29 | 0.795
L140W | -0.629 | 0.639
D139W | 0.0888 | -0.429
D139T | -0.31 | -0.694
D139Y | -0.145 | 0.0051

Variant | scaled log2 fold change [1] | scaled log2 fold change [2]
D139V | 0.0114 | –
A141I | -0.168 | 0.617
A141L | -0.402 | –
A141C | 0.249 | -1.33
A141G | -0.119 | 0.016
A141N | -0.0904 | 0.596
A141Y | -0.374 | -0.341
A141K | 0.122 | -0.0127
A141R | 0.0996 | 0.0982
A141V | 0.00876 | 0.0536
A141H | 0.134 | -0.527
A141S | -0.0824 | 0.987
A141Q | 0.09 | 0.9
A141W | -0.0378 | -0.209
A141M | -0.0992 | 0.123
A141P | 0.46 | -0.803
A141T | 0.135 | 0.788
A141F | -0.22 | 1.03
A141E | 0.304 | -0.297
A141D | 0.178 | -0.445
